How the values were obtained:
[1] = target: wild-type HMPV F protein (soluble, secreted, with C-terminal GCNt trimerization domain) (human metapneumovirus, B2 strain); assay: SPR; BiOptix 404pi; F proteins captured on NiHC1000m chip through their C-terminal His tag to 120 RU; Fab injected at 300 to 0.14 nM, 100 ul/min; 10 mM HEPES pH 7.2, 150 mM NaCl, 0.005% Tween 20, 50 uM EDTA; simple Langmuir model
[2] = target: wild-type HMPV F protein (soluble, secreted, with C-terminal GCNt trimerization domain) (human metapneumovirus, B2 strain); assay: negative-stain EM; purified F proteins on carbon-coated copper grids, 2% uranyl formate; unheated and heated to 50°C
[3] = target: wild-type HMPV F protein (soluble, secreted, with C-terminal GCNt trimerization domain) (human metapneumovirus, B2 strain); assay: SEC; gel filtration of the purified F proteins alone (Superdex-200, 25 mM sodium phosphate pH 7.4, 100 mM NaCl)
[4] = target: DS-7 Fab (anti-HMPV F neutralizing antibody); assay: SPR; Bio-Rad ProteOn XPR36; biotinylated antibodies (Fabs) immobilised on NLC chip at 80-300 RU; unheated HMPV F injected at 500, 166.7, 55.5, 18.5, 6.2, 0 nM, 100 ul/min; 20 mM NaPO4 pH 7.4, 100 mM NaCl, 10 mM imidazole, 0.005% Tween 20; bivalent analyte model
[5] = target: DS-7 Fab (anti-HMPV F neutralizing antibody); assay: SPR; as a1 (ProteOn, Fab immobilised, F injected, bivalent analyte model), but HMPV F proteins heated to 50°C for 30 minutes (post-fusion form)

Substance | Kd [1] [pM] | koff [1] [s⁻¹] | kon [1] [M⁻¹ s⁻¹] | t1/2 [1] [min] | stoichiometry N [2] | stoichiometry N [3] | Kd [4] [pM] | koff [4] [s⁻¹] | kon [4] [M⁻¹ s⁻¹] | t1/2 [4] [min] | Kd [5] [pM] | koff [5] [s⁻¹] | kon [5] [M⁻¹ s⁻¹] | t1/2 [5] [min]
DS-7 Fab (anti-HMPV F neutralizing antibody) | 300 | 0.000197 | 684000 | 59 |  |  |  |  |  |  |  |  |  | 
wild-type HMPV F protein (soluble, secreted, with C-terminal GCNt trimerization domain) (natural protein) |  |  |  |  | 3 | 3 | 830 | 0.00012 | 147000 | 96 | 2800 | 0.000258 | 95700 | 45

Reference: publication PMC4880302
